For one substance, stoichiometry N results are on record in publication doi:10.1101/370411.

The target of this test is Porcine circovirus 2 (PCV2) virus like particle, Baculovirus expressed capsid protein (Porcine circovirus 2). Description: cryo-EM structure.

“Porcine circovirus 2 (PCV2) virus like particle, Baculovirus expressed capsid protein (natural protein)” showed a stoichiometry N of 60.
